Here are results for 35 variants from the supplement of paper PMC7125110.

± gives the standard error. Variants at the floor of the assay were thinned out.

First the molecules themselves.
B1: glmS ribozyme (parent)
chain: AUAAAAGCGCCAGAACUACAGAAAUGUAGUUGACGAGGAGGAGGUUUAUCGAAUUUUCGGCGGAUGCCUCCAAA

The variants in the first data set derive from B1. Kind of data set: self-cleavage kobs at 2500 uM GlcN6P; higher = faster cleavage; RNA array. Conditions: with glucosamine-6-phosphate. The method in brief:
(§1)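 On sequenced MiSeq chips, barcoded ribozyme variants were made in situ by E. coli RNA polymerase and followed at 37 °C through a hybridised Cy3 probe. Glucosamine-6-phosphate was flowed in at 40 μM to 10 mM in HEPES/KCl/Mg(OAc)2 buffer. Exponential fits to normalised per-tile medians gave kobs, and weighted Michaelis–Menten fits gave kcat and KM.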
As to AUAAAAGCGCCAGAACUACAGAAAUGUAGUUGACGAGGGGGAGGUUUAUCGAAUCUUCGGCGGGUGCCUCCAAA [A39G U55C A64G], the “self-cleavage kobs at 2500 uM GlcN6P” value worked out at 0.00694 ± 0.0013 s⁻¹.
Same read-out and setting: under AUAAAAUCGCCAGAACUACAGAAAUGUAGUUGACGAGGAGCAGGUUUAUUGAAUUUUCGGCGGAUGCCUCCAAA [G7U G41C C50U] stands under 1e-05 s⁻¹.
Same read-out and setting: under AUAAAAGCGCCAGAACUACAGAAAUGUAGUUGACGAGGAGGAUGUUCAUCGAAUUUUCGGCGAAUGCCUCCAAA [G43U U47C G63A] stands under 1e-05 s⁻¹; under AUAAAAGCGCCAGAACUACAGAAAUGUAGUUGACGAGGUGGAGGUUUAUCGAAUUCUCGGCGGAUGGCUCCAAA [A39U U56C C67G], 3.66e-05 ± 9.2e-06 s⁻¹.
As to AUAAAAACUCCAGAACUACAGAAAUGUAGUUGCCGAGGAGGAGGUUGAUCGAAUUUUCGGCGGAUGCCUCCAAA [G7A G9U A33C U47G], the “self-cleavage kobs at 2500 uM GlcN6P” value was under 1e-05 s⁻¹.
Still for that read-out and setting: to AUAAAAGCGCCAGAACUACAGAAAUGUAGGUGACAAGGAGGACGUUUAUCGAAUUUUCGGCGGAUGCCUCCAAA [U30G G35A G43C] belongs under 1e-05 s⁻¹; to AUAAAAGCGCCAGAACUACAGAAAUGUAGUCGACGAGGAGCAGGAUUAUCGGAUUUUCGGGGGAUGCCUCCAAA [U31C G41C U45A A52G C61G], under 1e-05 s⁻¹.
Same read-out and setting: under AUAAAAGCGCCAGAACUACAGAAAUGUAGUUGAUAAGGAGGAGGUUUAUCGAAUUUUCGGCGGAUGCCUCCAAA [C34U G35A] stands under 1e-05 s⁻¹; under AUAAAAGCGCCAGAACUACAGAAAUGUAGUUGACGUGGAGGUGGUUUAUCGAAUUUUCUGCGGAUGCCUCCAAA [A36U A42U G59U], under 1e-05 s⁻¹.
On the same count and under the same terms, under AUAAAAGCGCCAGAACUACAGAAAUGUAGUUGACGAGGAGGUGGUUUAUCGAAUAUUCGUCGCAUGCCUCCAAA [A42U U55A G60U G63C] stands under 1e-05 s⁻¹.
Regarding AUAAAAGCGCCAGAACUACAGAAAUGUAUUUGACGAGGAGGAGUUUUAUCGAAUUUUCUGCGGAUGACUCCAAA [G29U G44U G59U C67A], the “self-cleavage kobs at 2500 uM GlcN6P” value is under 1e-05 s⁻¹.
Consider AUAAAAGCGCCAGAACUACAGAAAUGUAGUUGACGAGGAGGAGGUUUAUCGAAUUAUGGGCGGAUGUCUCCAAA [U56A C58G C67U], for which the “self-cleavage kobs at 2500 uM GlcN6P” value was determined as 4.09e-05 ± 1.7e-05 s⁻¹.
Consider AUAAAAGCGCCACAACUACAGAAAUGUAGUUGACGAGGAGGACGUUUAUCGAAUUUGCGGCGGAUGCCUCCAAA [G13C G43C U57G], for which the “self-cleavage kobs at 2500 uM GlcN6P” value was under 1e-05 s⁻¹.
Same read-out and setting: under AUAAAAGCGCCAGAACUACAGAAAUGUAGUUGACCAGGAGGAGUUUUAUCGGAAUUUCGGCGGAUGUCUCCAAA [G35C G44U A52G U54A C67U] stands under 1e-05 s⁻¹; under AUAAAAGCGCCAGAACUACAGAAAUGUAGUUGACGAGCAGGAGGUUUAUCGAAUUUUCGCCGGAUUCCUCCAAA [G38C G60C G66U], under 1e-05 s⁻¹; under AUAAAAGCGCCAGAACUACAGAAAUGUAGAUGACGAGGAGGCGGGUUAUCGAAUUUUCGGCGGAGGCCUGCAAA [U30A A42C U45G U65G C70G], 0.000761 ± 0.00026 s⁻¹.
Turning to AUAAAAGUGCUAGAACUACAGAAAUGUAGAUGACGAGGAGGAGGUUUAUCGCAUUUUCGGCGGAUGCCGCCAAA [C8U C11U U30A A52C U69G], the “self-cleavage kobs at 2500 uM GlcN6P” value was under 1e-05 s⁻¹.
The same measure, in the same setting: to AUAAAAGCGCCAGAGCUACAGAAAUGUAGUUGACGAGGAGGAGUUUUAUCGAAUUUUCGGCGGUGGCCUCCAAA [A15G G44U A64U U65G] belongs under 1e-05 s⁻¹; to AUAAAAGCGCCUGAACUACAGAAAUGUAGUUGACGAGGAGGAUGUUUAUUGAAUUUUCAGCGGAUGCCUCCAAA [A12U G43U C50U G59A], under 1e-05 s⁻¹.
AUAAAAGCGCCGGAACUACAGAAAUGUAGUUGACGAGGAGGAGGUUUAUCGAUUGUUCGGCGGAUGCCUCCAAA [A12G A53U U55G]: the “self-cleavage kobs at 2500 uM GlcN6P” value is 0.000166 ± 2.9e-05 s⁻¹.
On the same count and under the same terms, under AUAAAAGCGCCCGAACUACAGAAAUGUAGUUGACGAGGAGGAGCUUUAUCGAAUUUUCGGCGGACGCCUCCAAA [A12C G44C U65C] stands under 1e-05 s⁻¹; under AUAAAAGCGCCAGAACUACAGAAAUGUAGUUGACGAGGAGCUGGUUUAUCGAAUUUUCGCCCGAUGCCUCCAAA [G41C A42U G60C G62C], under 1e-05 s⁻¹.
On the same count and under the same terms, to AUAAAAUCGCGAAUACUACAGAAAUGUAGUUUCCGAAGAAGAGGUUCAUCGAAUUUUCGGCGGAUGCCUCCAAA [G7U C11G G13A A14U G32U A33C G37A G40A U47C] belongs under 1e-05 s⁻¹.
As for AUAAAAGCGUCAGAACUACAGAAAUGUAGUUGGCGAGGGGCAGGUUUAUCGAAUUUUCGGCGGAUGUCUCCAAA [C10U A33G A39G G41C C67U], the “self-cleavage kobs at 2500 uM GlcN6P” value was under 1e-05 s⁻¹.
For AUAAAAGCCCAAGAACUACAGAAAUGUAGUUGACGAGGAGGAGUUUUAUCGAAUUUUCGGCGAAUGUCUCCAAA [G9C C11A G44U G63A C67U], the “self-cleavage kobs at 2500 uM GlcN6P” value is under 1e-05 s⁻¹.
As for AUAAAAGCGCCAGAUCUACAGAAAUGUAGUGGACGAGGAAGAGGUUUAUCGAAUUUUCGGCGGAUGCCUCCAAA [A15U U31G G40A], the “self-cleavage kobs at 2500 uM GlcN6P” value was found to be 0.000101 ± 2.5e-05 s⁻¹.
On to AUAAAAGCGCCAGAGCUACAGAAAUGUAGUUGACGAUGAGGAGGUUUAUCGAAUUUUCGGAGGAUGCAUGCAAA [A15G G37U C61A C68A C70G], for which the “self-cleavage kobs at 2500 uM GlcN6P” value was found to be 4.28e-05 ± 2e-05 s⁻¹.
Still for that read-out and setting: to AUAAAAGCGCCGGGACUACAGAAAUGUAGUUUUCGAGGAGGAGGUUUAUCCAAUUUUCGGCGGAUGCCUCCAAA [A12G A14G G32U A33U G51C] belongs under 1e-05 s⁻¹.
Still for that read-out and setting: to AUAAAAGCGCCAGAACUACAGAAAUGUAGUUGACGAGUAGGAGGUUUAUCGAAUUUACGCCGGAUUCCUCCAAA [G38U U57A G60C G66U] belongs under 1e-05 s⁻¹; to AUAAAAGCGUCAAAACUACAGAAAUGUAGUUGUCGAGGAGGAGGUUUAUCGAAUUUUCGGCGGAUGCCUCCAAA [C10U G13A A33U], under 1e-05 s⁻¹; to AUAAAAGAGCCAGAACUACAGAAAUGUAGUUGACGAGGAGGAGGUUUAUCGAAUUUUACGCGGAUGCCUCCAAA [C8A C58A G59C], under 1e-05 s⁻¹.
The same measure, in the same setting: to AUAAAAGCGCCAGAACUACAGAAAUGUAGUUGACGCGGAGGAGGUUUGUCGAAUUUUCGGCGGAUGCCUGCAAA [A36C A48G C70G] belongs under 1e-05 s⁻¹; to AUAAACGCGCCAGAACUACAGAAAUGUAGUUGACGAGGAGGAGGUUUCUCUAAUUUUCGGCGGAUGCCUCCAAA [A6C A48C G51U], under 1e-05 s⁻¹.
On to AUAAACGCGCCACAACUACAGAAAUGUAAGUUGAGAGGAGGAGGUUUAUUGAAUUUUCGGCGGAUGCCUCCAAA [A6C G13C G29A U30G G32U A33G C34A C50U], for which the “self-cleavage kobs at 2500 uM GlcN6P” value is under 1e-05 s⁻¹.
Still for that read-out and setting: under AUAAAAGUGCCAGAAGUACAGAAAUGUACUUGACGAGGAGGAGGUUUAUCGAAUUUUCGGCGGAUGCCUCCAAA [C8U C16G G29C] stands under 1e-05 s⁻¹.

The variants in the next data set derive from B1. The data set is described as follows: self-cleavage kobs at 10000 uM GlcN6P; higher = faster cleavage; RNA array. Conditions: with glucosamine-6-phosphate. The method in brief: as §1
Consider AUAAAAGCGCCAGAACUACAGAAAUGUAGUUGAUAAGGAGGAGGUUUAUCGAAUUUUCGGCGGAUGCCUCCAAA [C34U G35A], for which the “self-cleavage kobs at 10000 uM GlcN6P” value is under 1e-05 s⁻¹.
AUAAAAGCGUCAGAACUACAGAAAUGUAGUUGGCGAGGGGCAGGUUUAUCGAAUUUUCGGCGGAUGUCUCCAAA [C10U A33G A39G G41C C67U]: the “self-cleavage kobs at 10000 uM GlcN6P” value was under 1e-05 s⁻¹.
